# Experimental data from US20190385705A1.
# What was measured:
# [1] = molecular target: intact ZIKV particles (ZIKV envelope protein) (Zika virus); assay: direct ELISA on coated intact ZIKV particles (10-fold dilutions), antibody 1 ug/ml, anti-mouse IgG-HRP; LOD = blank + 3 SD
# [2] = molecular target: intact ZIKV particles (ZIKV envelope protein) (Zika virus); assay: direct ELISA on coated intact ZIKV particles (10-fold dilutions), antibody 1 ug/ml, anti-mouse IgG-HRP; FPLR fit
# [3] = molecular target: intact ZIKV particles (ZIKV envelope protein) (Zika virus); assay: direct ELISA on coated intact ZIKV particles (10-fold dilutions), biotinylated peptide 20 uM, streptavidin-HRP; LOD = blank + 3 SD
# [4] = molecular target: intact ZIKV particles (ZIKV envelope protein) (Zika virus); assay: direct ELISA on coated intact ZIKV particles (10-fold dilutions), biotinylated peptide 5 uM, streptavidin-HRP; FPLR fit
# [5] = molecular target: intact DENV-1 particles (Dengue virus serotype 1); assay: direct ELISA, plates coated with 10^5 copies/mL of intact virus particles
# [6] = molecular target: intact DENV-3 particles (Dengue virus serotype 3); assay: as above
# [7] = molecular target: intact DENV-2 particles (Dengue virus serotype 2); assay: as above
# [8] = molecular target: intact ZIKV particles (ZIKV envelope protein) (Zika virus); assay: direct ELISA on coated intact ZIKV particles (10-fold dilutions), biotinylated peptide 5 uM, streptavidin-HRP; LOD = blank + 3 SD
# [9] = molecular target: intact ZIKV particles (ZIKV envelope protein) (Zika virus); assay: direct ELISA on coated intact ZIKV particles (10-fold dilutions), biotinylated peptide 2 uM, streptavidin-HRP; FPLR fit
# [10] = molecular target: intact ZIKV particles (ZIKV envelope protein) (Zika virus); assay: direct ELISA on coated intact ZIKV particles (10-fold dilutions), biotinylated peptide 2 uM, streptavidin-HRP; LOD = blank + 3 SD
# [11] = molecular target: intact ZIKV particles (ZIKV envelope protein) (Zika virus); assay: direct ELISA on coated intact ZIKV particles (10-fold dilutions), biotinylated peptide 0.5 uM, streptavidin-HRP; FPLR fit
# [12] = molecular target: intact ZIKV particles (ZIKV envelope protein) (Zika virus); assay: direct ELISA on coated intact ZIKV particles (10-fold dilutions), biotinylated peptide 0.5 uM, streptavidin-HRP; LOD = blank + 3 SD
# [13] = molecular target: intact ZIKV particles (ZIKV envelope protein) (Zika virus); assay: direct ELISA on coated intact ZIKV particles (10-fold dilutions), biotinylated peptide 20 uM, streptavidin-HRP; FPLR fit
# [14] = molecular target: intact ZIKV particles (ZIKV envelope protein) (Zika virus); assay: direct ELISA on coated intact ZIKV particles, mono-arm peptide 20 uM in urine (1:1) or serum (1:10); data not shown
molecule,measurement,setting,value
antibody 4G2 hybridoma mouse IgG2a,"LOD (log[ZIKV], copies/mL)",[1],5.8
same,"FPLR C50 (log[ZIKV], copies/mL)",[2],6.2
same,FPLR minimum,[2],0.04 ΔA
CSWPGQ (maleimide-PEG2-biotin on the N-terminal cysteine) [mono-arm peptide P1],"LOD (log[ZIKV], copies/mL)",[3],6.8
"MDSPIKGPGCCGPGKRNATP (designed binder, maleimide-PEG2-biotin on the cysteines of the bridge (thioether)) [clamp peptide C7]","FPLR C50 (log[ZIKV], copies/mL)",[4],5.8
same,FPLR minimum,[4],0.01 ΔA
same,signal decrease against the ZIKV signal,[5],70%
same,signal decrease against the ZIKV signal,[6],70%
same,signal decrease against the ZIKV signal,[7],70%
same,"LOD (log[ZIKV], copies/mL)",[8],3.7
"WPHTQGPGCCGPGLRGHA (designed binder, maleimide-PEG2-biotin on the cysteines of the bridge (thioether)) [clamp peptide C2]","FPLR C50 (log[ZIKV], copies/mL)",[9],6.2
same,FPLR minimum,[9],0.05 ΔA
same,"LOD (log[ZIKV], copies/mL)",[10],4.5
"WPWIGTGPGCCGPGKRNATP (designed binder, maleimide-PEG2-biotin on the cysteines of the bridge (thioether)) [clamp peptide C3]","FPLR C50 (log[ZIKV], copies/mL)",[11],5.3
same,FPLR minimum,[11],0.05 ΔA
same,signal decrease against the ZIKV signal,[5],70%
same,signal decrease against the ZIKV signal,[6],70%
same,signal decrease against the ZIKV signal,[7],70%
same,"LOD (log[ZIKV], copies/mL)",[12],3.5
"MDSPIKGPGCCGPGKTDAYS (designed binder, maleimide-PEG2-biotin on the cysteines of the bridge (thioether)) [clamp peptide C8]","FPLR C50 (log[ZIKV], copies/mL)",[4],6.2
same,FPLR minimum,[4],0.03 ΔA
same,"LOD (log[ZIKV], copies/mL)",[8],4.7
CLRGHA (maleimide-PEG2-biotin on the N-terminal cysteine) [mono-arm peptide P2],"FPLR C50 (log[ZIKV], copies/mL)",[13],6.2
same,FPLR minimum,[13],0.04 ΔA
same,lowest ZIKV concentration detected in urine or serum,[14],1e+06 copies/mL
same,"LOD (log[ZIKV], copies/mL)",[3],4.5
"WPWIGTGPGCCGPGKTDAYS (designed binder, maleimide-PEG2-biotin on the cysteines of the bridge (thioether)) [clamp peptide C4]","FPLR C50 (log[ZIKV], copies/mL)",[9],6.3
same,FPLR minimum,[9],0.02 ΔA
same,"LOD (log[ZIKV], copies/mL)",[10],5.7
"AGRRPGPGCCGPGLRGHA (designed binder, maleimide-PEG2-biotin on the cysteines of the bridge (thioether)) [clamp peptide C6]","FPLR C50 (log[ZIKV], copies/mL)",[11],5.2
same,FPLR minimum,[11],0.05 ΔA
same,signal decrease against the ZIKV signal,[6],55%
same,signal decrease against the ZIKV signal,[7],45%
same,"LOD (log[ZIKV], copies/mL)",[12],3.5
CKRNATP (maleimide-PEG2-biotin on the N-terminal cysteine) [mono-arm peptide X1],"FPLR C50 (log[ZIKV], copies/mL)",[13],6.1
same,FPLR minimum,[13],0.03 ΔA
same,lowest ZIKV concentration detected in urine or serum,[14],1e+07 copies/mL
same,"LOD (log[ZIKV], copies/mL)",[3],4.8
"AGRRPGPGCCGPGSWPGQ (designed binder, maleimide-PEG2-biotin on the cysteines of the bridge (thioether)) [clamp peptide C5]","FPLR C50 (log[ZIKV], copies/mL)",[4],6.4
same,FPLR minimum,[4],0.01 ΔA
same,"LOD (log[ZIKV], copies/mL)",[8],5.8
"WPHTQGPGCCGPGSWPGQ (designed binder, maleimide-PEG2-biotin on the cysteines of the bridge (thioether)) [clamp peptide C1]","FPLR C50 (log[ZIKV], copies/mL)",[9],6.3
same,FPLR minimum,[9],0.03 ΔA
same,"LOD (log[ZIKV], copies/mL)",[10],4.8
CKTDAYS (maleimide-PEG2-biotin on the N-terminal cysteine) [mono-arm peptide X2],"FPLR C50 (log[ZIKV], copies/mL)",[13],6.1
same,FPLR minimum,[13],0.01 ΔA
same,"LOD (log[ZIKV], copies/mL)",[3],5.8
